Results: the supplement of paper PMC5998384

What was measured:
[1] = test system: HeLa Kyoto; assay: solubility in G1/S (NP-40 vs SDS abundance) (log2 ratio); higher = more soluble; settings: cell cycle stage: G1/S
[2] = test system: HeLa Kyoto; assay: melting temperature (median over replicates), in situ; higher = more thermally stable
[3] = test system: HeLa Kyoto; assay: solubility change mitosis vs G1/S (difference of NP-40 vs SDS log2 ratios) (log2 ratio difference); higher = more soluble in mitosis
[4] = test system: HeLa Kyoto; assay: thermal stability score vs G1/S (z-score of summed log2 fold changes over temperatures); higher = more thermally stable than in G1/S
[5] = cell cycle stage: early G1 (4.5 h after nocodazole release)
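Throughout, for melting temperature (median over replicates), in situ: HeLa Kyoto cells synchronized by double thymidine or nocodazole block, proteins quantified by TMT10plex mass spectrometry, three independent biological replicates.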
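Throughout, for solubility change mitosis vs G1/S (difference of NP-40 vs SDS log2 ratios): synchronized HeLa Kyoto cells (double thymidine block for G1/S, nocodazole release for mitosis), protein amounts in NP-40 versus SDS lysates quantified by mass spectrometry, three biological replicates.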
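Throughout, for solubility in G1/S (NP-40 vs SDS abundance): HeLa Kyoto cells arrested at G1/S by double thymidine block, proteins quantified by TMT10plex mass spectrometry in mild NP-40 versus SDS extracts, three biological replicates.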
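Throughout, for thermal stability score vs G1/S (z-score of summed log2 fold changes over temperatures): synchronized HeLa Kyoto cells, proteins quantified by TMT10plex mass spectrometry, three biological replicates, mitosis taken 0.5 h after nocodazole release, G1/S directly after double thymidine block.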

Substance	solubility in G1/S (log2) [1]	melting temperature ([2]; cell cycle stage: G1/S) [°C]	melting temperature ([2]; cell cycle stage: mitosis) [°C]	solubility change mitosis (log2) [3]	thermal stability score [4, 5]	thermal stability score ([4]; cell cycle stage: mitosis)
MCGIWALFGSDDCLSVQCLSAMKIAHRGPDAFRFENVNGYTNCCFGFHRLAVVDPLFGMQPIRVKKYPYLWLCYNGEIYNHKKMQQHFEFEYQTKVDGEIILHLYDKGGIEQTICMLDGVFAFVLLDTANKKVFLGRDTYGVRPLFKAMTEDGFLAVCSEAKGLVTLKHSATPFLKVEPFLPGHYEVLDLKPNGKVASVEMVKYHHCRDVPLHALYDNVEKLFPGFEIETVKNNLRILFNNAVKKRLMTDRRIGCLLSGGLDSSLVAATLLKQLKEAQVQYPLQTFAIGMEDSPDLLAARKVADHIGSEHYEVLFNSEEGIQALDEVIFSLETYDITTVRASVGMYLISKYIRKNTDSVVIFSGEGSDELTQGYIYFHKAPSPEKAEEESERLLRELYLFDVLRADRTTAAHGLELRVPFLDHRFSSYYLSLPPEMRIPKNGIEKHLLRETFEDSNLIPKEILWRPKEAFSDGITSVKNSWFKILQEYVEHQVDDAMMANAAQKFPFNTPKTKEGYYYRQVFERHYPGRADWLSHYWMPKWINATDPSARTLTHYKSAVKA [ASNS]	-0.142	52.8	53.1	-0.21	2.34	-0.215
MSQQGYVATPPYSQPQPGIGLSPPHYGHYGDPSHTASPTGMMKPAGPLGATATRGMLPPGPPPPGPHQFGQNGAHATGHPPQRFPGPPPVNNVASSHAPYQPSAQSSYPGPISTSSVTQLGSQLSAMQINSYGSGMAPPSQGPPGPLSATSLQTPPRPPQPSILQPGSQVLPPPPTTLNGPGASPLPLPMYRPDGLSGPPPPNAQYQPPPLPGQTLGAGYPPQQANSGPQMAGAQLSYPGGFPGGPAQMAGPPQPQKKLDPDSIPSPIQVIENDRASRGGQVYATNTRGQIPPLVTTDCMIQDQGNASPRFIRCTTYCFPCTSDMAKQAQIPLAAVIKPFATIPSNESPLYLVNHGESGPVRCNRCKAYMCPFMQFIEGGRRYQCGFCNCVNDVPPFYFQHLDHIGRRLDHYEKPELSLGSYEYVATLDYCRKSKPPNPPAFIFMIDVSYSNIKNGLVKLICEELKTMLEKIPKEEQEETSAIRVGFITYNKVLHFFNVKSNLAQPQMMVVTDVGEVFVPLLDGFLVNYQESQSVIHNLLDQIPDMFADSNENETVFAPVIQAGMEALKAADCPGKLFIFHSSLPTAEAPGKLKNRDDKKLVNTDKEKILFQPQTNVYDSLAKDCVAHGCSVTLFLFPSQYVDVASLGLVPQLTGGTLYKYNNFQMHLDRQQFLNDLRNDIEKKIGFDAIMRVRTSTGFRATDFFGGILMNNTTDVEMAAIDCDKAVTVEFKHDDKLSEDSGALIQCAVLYTTISGQRRLRIHNLGLNCSSQLADLYKSCETDALINFFAKSAFKAVLHQPLKVIREILVNQTAHMLACYRKNCASPSAASQLILPDSMKVLPVYMNCLLKNCVLLSRPEISTDERAYQRQLVMTMGVADSQLFFYPQLLPIHTLDVKSTMLPAAVRCSESRLSEEGIFLLANGLHMFLWLGVSSPPELIQGIFNVPSFAHINTDMTLLPEVGNPYSQQLRMIMGIIQQKRPYSMKLTIVKQREQPEMVFRQFLVEDKGLYGGSSYVDFLCCVHKEICQLLN [SEC24D]	0.11	50.8	50.9	-0.132	0.419	0.688
MATERSRSAMDSPVPASMFAPEPSSPGAARAAAAAARLHGGFDSDCSEDGEALNGEPELDLTSKLVLVSPTSEQYDSLLRQMWERMDEGCGETIYVIGQGSDGTEYGLSEADMEASYATVKSMAEQIEADVILLRERQEAGGRVRDYLVRKRVGDNDFLEVRVAVVGNVDAGKSTLLGVLTHGELDNGRGFARQKLFRHKHEIESGRTSSVGNDILGFDSEGNVVNKPDSHGGSLEWTKICEKSTKVITFIDLAGHEKYLKTTVFGMTGHLPDFCMLMVGSNAGIVGMTKEHLGLALALNVPVFVVVTKIDMCPANILQETLKLLQRLLKSPGCRKIPVLVQSKDDVIVTASNFSSERMCPIFQISNVTGENLDLLKMFLNLLSPRTSYREEEPAEFQIDDTYSVPGVGTVVSGTTLRGLIKLNDTLLLGPDPLGNFLSIAVKSIHRKRMPVKEVRGGQTASFALKKIKRSSIRKGMVMVSPRLNPQASWEFEAEILVLHHPTTISPRYQAMVHCGSIRQTATILSMDKDCLRTGDKATVHFRFIKTPEYLHIDQRLVFREGRTKAVGTITKLLQTTNNSPMNSKPQQIKMQSTKKGPLTKRDEGGPSGGPAVGAPPPGDEASSVGAGQPAASSNLQPQPKPSSGGRRRGGQRHKVKSQGACVTPASGC [GTPBP1]	0.0683	51.1	50.7	-0.0833	1.01	0.553
MGNLLKVLTCTDLEQGPNFFLDFENAQPTESEKEIYNQVNVVLKDAEGILEDLQSYRGAGHEIREAIQHPADEKLQEKAWGAVVPLVGKLKKFYEFSQRLEAALRGLLGALTSTPYSPTQHLEREQALAKQFAEILHFTLRFDELKMTNPAIQNDFSYYRRTLSRMRINNVPAEGENEVNNELANRMSLFYAEATPMLKTLSDATTKFVSENKNLPIENTTDCLSTMASVCRVMLETPEYRSRFTNEETVSFCLRVMVGVIILYDHVHPVGAFAKTSKIDMKGCIKVLKDQPPNSVEGLLNALRYTTKHLNDETTSKQIKSMLQ [FAM49B]	0.31	54.2	54.2	0.0154	1.27	0.808
MEAVLNELVSVEDLLKFEKKFQSEKAAGSVSKSTQFEYAWCLVRSKYNDDIRKGIVLLEELLPKGSKEEQRDYVFYLAVGNYRLKEYEKALKYVRGLLQTEPQNNQAKELERLIDKAMKKDGLVGMAIVGGMALGVAGLAGLIGLAVSKSKS [FIS1]	0.15	54.2	53.8	0.251	-2.36	-0.553
MAPMGIRLSPLGVAVFCLLGLGVLYHLYSGFLAGRFSLFGLGGEPGGGAAGPAAAADGGTVDLREMLAVSVLAAVRGGDEVRRVRESNVLHEKSKGKTREGAEDKMTSGDVLSNRKMFYLLKTAFPSVQINTEEHVDAADQEVILWDHKIPEDILKEVTTPKEVPAESVTVWIDPLDATQEYTEDLRKYVTTMVCVAVNGKPMLGVIHKPFSEYTAWAMVDGGSNVKARSSYNEKTPRIVVSRSHSGMVKQVALQTFGNQTTIIPAGGAGYKVLALLDVPDKSQEKADLYIHVTYIKKWDICAGNAILKALGGHMTTLSGEEISYTGSDGIEGGLLASIRMNHQALVRKLPDLEKTGHK [IMPAD1]	0.145	59.1	58.9	-0.132	0.124	-1.11
MAAPLRIQSDWAQALRKDEGEAWLSCHPPGKPSLYGSLTCQGIGLDGIPEVTASEGFTVNEINKKSIHISCPKENASSKFLAPYTTFSRIHTKSITCLDISSRGGLGVSSSTDGTMKIWQASNGELRRVLEGHVFDVNCCRFFPSGLVVLSGGMDAQLKIWSAEDASCVVTFKGHKGGILDTAIVDRGRNVVSASRDGTARLWDCGRSACLGVLADCGSSINGVAVGAADNSINLGSPEQMPSEREVGTEAKMLLLAREDKKLQCLGLQSRQLVFLFIGSDAFNCCTFLSGFLLLAGTQDGNIYQLDVRSPRAPVQVIHRSGAPVLSLLSVRDGFIASQGDGSCFIVQQDLDYVTELTGADCDPVYKVATWEKQIYTCCRDGLVRRYQLSDL [PAAF1]	-0.094	54	53.9	-0.218	-0.462	-0.84
OXSR1	0.197	49.1	49.6	-0.146	1.02	0.906
MEFSSPSREECPKPLSRVSIMAGSLTGLLLLQAVSWASGARPCIPKSFGYSSVVCVCNATYCDSFDPPTFPALGTFSRYESTRSGRRMELSMGPIQANHTGTGLLLTLQPEQKFQKVKGFGGAMTDAAALNILALSPPAQNLLLKSYFSEEGIGYNIIRVPMASCDFSIRTYTYADTPDDFQLHNFSLPEEDTKLKIPLIHRALQLAQRPVSLLASPWTSPTWLKTNGAVNGKGSLKGQPGDIYHQTWARYFVKFLDAYAEHKLQFWAVTAENEPSAGLLSGYPFQCLGFTPEHQRDFIARDLGPTLANSTHHNVRLLMLDDQRLLLPHWAKVVLTDPEAAKYVHGIAVHWYLDFLAPAKATLGETHRLFPNTMLFASEACVGSKFWEQSVRLGSWDRGMQYSHSIITNLLYHVVGWTDWNLALNPEGGPNWVRNFVDSPIIVDITKDTFYKQPMFYHLGHFSKFIPEGSQRVGLVASQKNDLDAVALMHPDGSAVVVVLNRSSKDVPLTIKDPAVGFLETISPGYSIHTYLWRRQ [GBA]	0.227	55.4	55.7	-0.136	-0.371	0.189
MSLLRSLRVFLVARTGSYPAGSLLRQSPQPRHTFYAGPRLSASASSKELLMKLRRKTGYSFVNCKKALETCGGDLKQAEIWLHKEAQKEGWSKAAKLQGRKTKEGLIGLLQEGNTTVLVEVNCETDFVSRNLKFQLLVQQVALGTMMHCQTLKDQPSAYSKGFLNSSELSGLPAGPDREGSLKDQLALAIGKLGENMILKRAAWVKVPSGFYVGSYVHGAMQSPSLHKLVLGKYGALVICETSEQKTNLEDVGRRLGQHVVGMAPLSVGSLDDEPGGEAETKMLSQPYLLDPSITLGQYVQPQGVSVVDFVRFECGEGEEAAETE [TSFM]	0.283	47.6	48.9	-0.0285	-0.0634	3.2
MAASGKLSTCRLPPLPTIREIIKLLRLQAAKQLSQNFLLDLRLTDKIVRKAGNLTNAYVYEVGPGPGGITRSILNADVAELLVVEKDTRFIPGLQMLSDAAPGKLRIVHGDVLTFKVEKAFSESLKRPWEDDPPNVHIIGNLPFSVSTPLIIKWLENISCRDGPFVYGRTQMTLTFQKEVAERLAANTGSKQRSRLSVMAQYLCNVRHIFTIPGQAFVPKPEVDVGVVHFTPLIQPKIEQPFKLVEKVVQNVFQFRRKYCHRGLRMLFPEAQRLESTGRLLELADIDPTLRPRQLSISHFKSLCDVYRKMCDEDPQLFAYNFREELKRRKSKNEEKEEDDAENYRL [TFB1M]	-0.318	51.7	51.4	0.122	0.388	0.452
MKENKENSSPSVTSANLDHTKPCWYWDKKDLAHTPSQLEGLDPATEARYRREGARFIFDVGTRLGLHYDTLATGIIYFHRFYMFHSFKQFPRYVTGACCLFLAGKVEETPKKCKDIIKTARSLLNDVQFGQFGDDPKEEVMVLERILLQTIKFDLQVEHPYQFLLKYAKQLKGDKNKIQKLVQMAWTFVNDSLCTTLSLQWEPEIIAVAVMYLAGRLCKFEIQEWTSKPMYRRWWEQFVQDVPVDVLEDICHQILDLYSQGKQQMPHHTPHQLQQPPSLQPTPQVPQVQQSQPSQSSEPSQPQQKDPQQPAQQQQPAQQPKKPSPQPSSPRQVKRAVVVSPKEENKAAEPPPPKIPKIETTHPPLPPAHPPPDRKPPLAAALGEAEPPGPVDATDLPKVQIPPPAHPAPVHQPPPLPHRPPPPPPSSYMTGMSTTSSYMSGEGYQSLQSMMKTEGPSYGALPPAYGPPAHLPYHPHVYPPNPPPPPVPPPPASFPPPAIPPPTPGYPPPPPTYNPNFPPPPPRLPPTHAVPPHPPPGLGLPPASYPPPAVPPGGQPPVPPPIPPPGMPPVGGLGRAAWMR [CCNK]	-0.035	52.9	52	0.0659	0.297	1.83
MSFRKVNIIILVLAVALFLLVLHHNFLSLSSLLRNEVTDSGIVGPQPIDFVPNALRHAVDGRQEEIPVVIAASEDRLGGAIAAINSIQHNTRSNVIFYIVTLNNTADHLRSWLNSDSLKSIRYKIVNFDPKLLEGKVKEDPDQGESMKPLTFARFYLPILVPSAKKAIYMDDDVIVQGDILALYNTALKPGHAAAFSEDCDSASTKVVIRGAGNQYNYIGYLDYKKERIRKLSMKASTCSFNPGVFVANLTEWKRQNITNQLEKWMKLNVEEGLYSRTLAGSITTPPLLIVFYQQHSTIDPMWNVRHLGSSAGKRYSPQFVKAAKLLHWNGHLKPWGRTASYTDVWEKWYIPDPTGKFNLIRRYTEISNIK [GLT8D1]	0.144	53	53	0.024	3.31	5.82
